Values quoted from earlier work, collected in paper PMC3197213.
pKd: −log10 of the molar value.

Target: syntaxin-1 SNARE motif (Rattus norvegicus) (UniProt P32851)
Sequence (P32851 191-253): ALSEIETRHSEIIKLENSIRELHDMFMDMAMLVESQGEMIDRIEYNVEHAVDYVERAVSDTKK

pKd: 4.34
Substance: Munc13-1 MUN domain (from UniProt Q62768)
